The results in this text go back to patent EP1018344A2.

Bounds are passed on as bounds.

This assay deals with HLA-A2.1 (as the chimeric class I molecule A2.1/K^b on Jurkat A2.1/K^b cells) (human; mouse), A*02:0. The assay can be described thus: cell-based or functional assay.

“peptide 802.01 (HBc11-27) (from UniProt P03146 11-27)”: the inhibition of release of serine esterase from CTL line 219 was greater than 25%.

Consider “peptide 799.04 (HBenv234-253) (from UniProt P03138 234-253)”, for which the inhibition of release of serine esterase from CTL line 219 was greater than 25%.

In turn, peptide 799.08 (HBenv309-328) returned an inhibition of release of serine esterase from CTL line 219 greater than 25%.

peptide 799.09 (HBenv329-348) registered an inhibition of release of serine esterase from CTL line 219 greater than 25%.

As for “peptide 800.05 (HBenv63-77) (from UniProt P03138 63-77)”, the inhibition of release of serine esterase from CTL line 219 was greater than 25%.

Turning to peptide 799.10 (HBenv349-368), the inhibition of release of serine esterase from CTL line 219 was greater than 25%.

The substance “peptide 799.05 (HBenv246-265) (from UniProt P03138 246-265)” came in with an inhibition of release of serine esterase from CTL line 219 greater than 25%.

As for “peptide 802.04 (HBc111-125) (from UniProt P03146 111-125)”, the inhibition of release of serine esterase from CTL line 219 is greater than 25%.

Substance “peptide 800.04 (HBenv47-63) (from UniProt P03138 47-63)” gave an inhibition of release of serine esterase from CTL line 219 greater than 25%.

Take “peptide 801.02 (HBenv141-157) (from UniProt P03138 141-157)”: the inhibition of release of serine esterase from CTL line 219 is greater than 25%.

Consider “peptide 799.02 (HBenv194-213) (from UniProt P03138 194-213)”, for which the inhibition of release of serine esterase from CTL line 219 is greater than 25%.

“peptide 802.06 (HBc162-176) (from UniProt P03146 162-176)” had an inhibition of release of serine esterase from CTL line 219 greater than 25%.

In the case of peptide 802.03 (HBc91-110), the inhibition of release of serine esterase from CTL line 219 is greater than 25%.
